Measured values from patent US20250076311A1 (Chugai, published 2025).
Blank lines part the entries; values can stand above or below the binder they belong to.

Legend:
[1] = molecular target: T1, human FcγRIIb constitutively expressed on MDCK cells (human, UniProt P31994 43-310); test: cell-based or functional assay
T1 sequence (looked up): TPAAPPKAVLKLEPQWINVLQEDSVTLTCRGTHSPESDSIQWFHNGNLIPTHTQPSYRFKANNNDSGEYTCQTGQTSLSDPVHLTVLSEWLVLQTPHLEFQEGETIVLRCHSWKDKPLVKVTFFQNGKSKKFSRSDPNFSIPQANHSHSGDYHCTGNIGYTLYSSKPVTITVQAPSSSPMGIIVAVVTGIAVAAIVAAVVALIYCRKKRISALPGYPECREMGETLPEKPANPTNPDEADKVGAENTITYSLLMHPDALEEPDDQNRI

[2] = molecular target: T2, soluble mouse FcγRII, His-tagged (mouse, UniProt P08101 30-210, limits assumed); test: SPR, mouse FcγRII captured via His-tag, antigen-antibody complex injected, pH 7.4, 25 C
T2 construct: Captured on the chip through an anti-His antibody
T2 sequence (looked up): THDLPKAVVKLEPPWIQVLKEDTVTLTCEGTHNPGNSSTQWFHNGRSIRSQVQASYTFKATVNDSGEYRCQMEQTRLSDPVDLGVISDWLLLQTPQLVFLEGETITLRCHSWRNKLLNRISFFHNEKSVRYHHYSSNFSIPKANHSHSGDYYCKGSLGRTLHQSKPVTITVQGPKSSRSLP
In short: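 Biacore T200; His-tagged soluble FcγRII captured on an anti-His antibody chip, then antibody–antigen complexes injected. Running buffer 20 mM ACES, 150 mM NaCl, 1.2 mM CaCl₂, 0.05% Tween 20, pH 7.4; regeneration with 10 mM glycine-HCl pH 1.5; all at 25° C.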

[3] = molecular target: T3, cynomolgus monkey FcγRIIIaS extracellular domain with C-terminal His-tag (cynomolgus monkey, UniProt Q8SPW2 21-206 at identity 1.00)); test: SPR, antibody captured, FcγR analyte
T3 construct: also called cyno FcgRIIIaS; cynoFcγRIIIaS
T3 chain: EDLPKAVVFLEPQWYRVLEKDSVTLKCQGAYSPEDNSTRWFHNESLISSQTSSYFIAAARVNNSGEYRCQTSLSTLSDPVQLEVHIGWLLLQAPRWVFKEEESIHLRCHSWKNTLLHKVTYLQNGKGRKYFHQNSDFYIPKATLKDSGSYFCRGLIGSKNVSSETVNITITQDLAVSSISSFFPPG

[4] = molecular target: T4, human FcγRIIaR extracellular domain with C-terminal His-tag (human, UniProt P12318 34-217); test: SPR, antibody captured, FcγR analyte
T4 construct: also called human FcgRIIaR; FcγRIIa (type R)
T4 chain: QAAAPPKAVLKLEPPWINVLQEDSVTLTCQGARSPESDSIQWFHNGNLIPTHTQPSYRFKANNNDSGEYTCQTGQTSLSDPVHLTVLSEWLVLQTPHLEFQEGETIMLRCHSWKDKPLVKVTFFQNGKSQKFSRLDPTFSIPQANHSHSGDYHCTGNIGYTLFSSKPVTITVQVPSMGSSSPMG

[5] = molecular target: T5, cynomolgus monkey FcγRIIb extracellular domain with C-terminal His-tag (cynomolgus monkey); test: SPR, KD(SG1)/KD(variant)
T5 construct: also called cyno FcgRIIb; cynoFcγRIIb
T5 chain: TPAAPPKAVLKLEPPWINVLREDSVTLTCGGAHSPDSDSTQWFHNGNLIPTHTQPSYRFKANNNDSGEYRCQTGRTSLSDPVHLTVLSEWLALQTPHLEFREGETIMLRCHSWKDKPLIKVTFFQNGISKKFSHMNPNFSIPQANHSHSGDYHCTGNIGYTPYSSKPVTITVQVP

[6] = molecular target: T3, cynomolgus monkey FcγRIIIaS …; test: SPR, KD(SG1)/KD(variant)
[7] = molecular target: T6, human FcγRIIb extracellular domain with C-terminal His-tag (human, UniProt P31994 43-217); test: SPR, KD(SG1)/KD(variant)
T6 construct: also called human FcgRIIb
T6 sequence: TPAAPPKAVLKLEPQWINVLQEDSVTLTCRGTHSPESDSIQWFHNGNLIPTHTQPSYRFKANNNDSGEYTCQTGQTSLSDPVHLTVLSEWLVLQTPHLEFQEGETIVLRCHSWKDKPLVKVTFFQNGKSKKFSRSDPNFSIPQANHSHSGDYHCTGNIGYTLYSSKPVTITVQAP

[8] = molecular target: T4, human FcγRIIaR extracellular domain …; test: SPR, KD(SG1)/KD(variant)
[9] = molecular target: T7, human FcγRIIIaV extracellular domain with C-terminal His-tag (human, UniProt P08637 17-208); test: SPR, KD(SG1)/KD(variant)
T7 construct: also called human FcgRIIIaV
T7 sequence (P08637 17-208 F176V): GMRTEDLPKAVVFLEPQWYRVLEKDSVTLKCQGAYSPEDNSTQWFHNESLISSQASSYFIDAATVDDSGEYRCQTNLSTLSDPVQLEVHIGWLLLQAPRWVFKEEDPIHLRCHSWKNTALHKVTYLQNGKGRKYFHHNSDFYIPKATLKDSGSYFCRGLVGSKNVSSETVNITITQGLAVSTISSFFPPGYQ

B1: MS1032LO06-SG1 (antibody, human IgG1, kappa)
heavy: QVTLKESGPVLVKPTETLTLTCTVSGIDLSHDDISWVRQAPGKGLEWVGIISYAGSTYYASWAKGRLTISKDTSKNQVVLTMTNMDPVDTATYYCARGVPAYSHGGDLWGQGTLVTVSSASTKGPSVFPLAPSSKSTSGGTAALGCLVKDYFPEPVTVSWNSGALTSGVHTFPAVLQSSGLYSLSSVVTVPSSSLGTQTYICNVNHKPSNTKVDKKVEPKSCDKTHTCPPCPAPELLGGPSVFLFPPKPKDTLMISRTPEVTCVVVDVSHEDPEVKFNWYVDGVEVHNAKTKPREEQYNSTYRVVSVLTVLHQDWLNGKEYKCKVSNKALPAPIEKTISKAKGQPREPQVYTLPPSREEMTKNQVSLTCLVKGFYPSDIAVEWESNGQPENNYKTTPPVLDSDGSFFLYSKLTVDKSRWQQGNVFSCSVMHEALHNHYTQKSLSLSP
light: DIVMTQSPATLSLSPGERATLSCTSSQSVYHANWLSWFQQKPGQPPKLLIYWASTLAYGVPSRFSGSGSGTDFTLTISSLQPEDAATYYCAGGYGGGRYAFGQGTKVEIKRTVAAPSVFIFPPSDEQLKSGTASVVCLLNNFYPREAKVQWKVDNALQSGNSQESVTEQDSKDSTYSLSSTLTLSKADYEKHKVYACEVTHQGLSSPVTKSFNRGEC
notes: also called M103205H795-SG1; copies: 2 + 2
- celluar uptake (labelled human latent myostatin taken up as antigen-antibody complex) [1]: 1 relative to SG1 = 1.00
- biacore IC binding (relative, SG1 = 1.00) [2]: 1 relative to SG1
- Kd [3]: 0.26 µM
- Kd [4]: 10 µM

B2: M103205H795-MY533/M103202L889-SK1 (antibody, human IgG1, kappa, name in EU numbering)
heavy: QVTLKESGPVLVKPTETLTLTCTVSGIDLSHDDISWVRQAPGKGLEWVGIISYAGSTYYASWAKGRLTISKDTSKNQVVLTMTNMDPVDTATYYCARGVPAYSHGGDLWGQGTLVTVSSASTKGPSVFPLAPSSKSTSGGTAALGCLVKDYFPEPVTVSWNSGALTSGVHTFPAVLQSSGLYSLSSVVTVPSSSLGTQTYICNVNHKPSNTKVDKKVEPKSCDKTHTCPPCPAPEWLTGPVVFLFPPKPKDTLMISRTPEVTCVVVDVSDEDPEVKFNWYVDGVEVHNAKTKPREELYNSTYRVVSVLTVLHQDWLNGKEYKCKVSNKALPKPIEKTISKAKGQPREPQVYTLPPSREEMTKNQVSLTCLVKGFYPSDIAVEWESNGQPENNYKTTPPVLDSDGSFFLYSKLTVDKSRWQQGNVFSCSVMHEALHNHYTQKSLSLSP
light: DIVMTQSPATLSLSPGERATLSCTSSQSVYHANWLSWFQQKPGQPPKLLIYWASTLAYGVPSRFSGSGSGTDFTLTISSLQPEDAATYYCAGGYGGGRYAFGQGTKVEIKRTVAAPSVFIFPPSDEQLKSGTASVVCLLNNFYPREAKVQWKVDNALQSGNSQESVTEQDSKDSTYSLSSTLTLSKADYEKHKVYACEVTHQGLSSPVTKSFNRGEC
notes: copies: 2 + 2
- KD fold (SG1 = 1) [5]: 7.7 fold
- KD fold (SG1 = 1) [6]: 0.33 fold
- KD fold (SG1 = 1) [7]: 4.8 fold

B3: M103205H795-MY532/M103202L889-SK1 (antibody, human IgG1, kappa, name in EU numbering)
heavy: QVTLKESGPVLVKPTETLTLTCTVSGIDLSHDDISWVRQAPGKGLEWVGIISYAGSTYYASWAKGRLTISKDTSKNQVVLTMTNMDPVDTATYYCARGVPAYSHGGDLWGQGTLVTVSSASTKGPSVFPLAPSSKSTSGGTAALGCLVKDYFPEPVTVSWNSGALTSGVHTFPAVLQSSGLYSLSSVVTVPSSSLGTQTYICNVNHKPSNTKVDKKVEPKSCDKTHTCPPCPAPEWLTGPVVFLFPPKPKDTLMISRTPEVTCVVVDVSDEDPEVKFNWYVDGVEVHNAKTKPREEQYNSTYRVVSVLTVLHQDWLNGKEYKCKVSNKALPKPIEKTISKAKGQPREPQVYTLPPSREEMTKNQVSLTCLVKGFYPSDIAVEWESNGQPENNYKTTPPVLDSDGSFFLYSKLTVDKSRWQQGNVFSCSVMHEALHNHYTQKSLSLSP
light: DIVMTQSPATLSLSPGERATLSCTSSQSVYHANWLSWFQQKPGQPPKLLIYWASTLAYGVPSRFSGSGSGTDFTLTISSLQPEDAATYYCAGGYGGGRYAFGQGTKVEIKRTVAAPSVFIFPPSDEQLKSGTASVVCLLNNFYPREAKVQWKVDNALQSGNSQESVTEQDSKDSTYSLSSTLTLSKADYEKHKVYACEVTHQGLSSPVTKSFNRGEC
notes: copies: 2 + 2
- KD fold (SG1 = 1) [8]: 5.8 fold
- KD fold (SG1 = 1) [9]: 0.48 fold

Further lines, results first:

- KD fold (SG1 = 1) [5]: 5.6 fold
- KD fold (SG1 = 1) [6]: 0.24 fold
B4: M103205H795-MY537/M103202L889-SK1 (antibody, human IgG1, kappa, name in EU numbering)
heavy: QVTLKESGPVLVKPTETLTLTCTVSGIDLSHDDISWVRQAPGKGLEWVGIISYAGSTYYASWAKGRLTISKDTSKNQVVLTMTNMDPVDTATYYCARGVPAYSHGGDLWGQGTLVTVSSASTKGPSVFPLAPSSKSTSGGTAALGCLVKDYFPEPVTVSWNSGALTSGVHTFPAVLQSSGLYSLSSVVTVPSSSLGTQTYICNVNHKPSNTKVDKKVEPKSCDKTHTCPPCPGPEWLTGPVVFLFPPKPKDTLMISRTPEVTCVVVDVSDEDPEVKFNWYVDGVEVHNAKTKPREELYNSTYRVVSVLTVLHQDWLNGKEYKCKVSNKALPKPIEKTISKAKGQPREPQVYTLPPSREEMTKNQVSLTCLVKGFYPSDIAVEWESNGQPENNYKTTPPVLDSDGSFFLYSKLTVDKSRWQQGNVFSCSVMHEALHNHYTQKSLSLSP
light: DIVMTQSPATLSLSPGERATLSCTSSQSVYHANWLSWFQQKPGQPPKLLIYWASTLAYGVPSRFSGSGSGTDFTLTISSLQPEDAATYYCAGGYGGGRYAFGQGTKVEIKRTVAAPSVFIFPPSDEQLKSGTASVVCLLNNFYPREAKVQWKVDNALQSGNSQESVTEQDSKDSTYSLSSTLTLSKADYEKHKVYACEVTHQGLSSPVTKSFNRGEC
notes: copies: 2 + 2

- KD fold (SG1 = 1) [6]: 0.22 fold
- KD fold (SG1 = 1) [8]: 5.8 fold
- KD fold (SG1 = 1) [9]: 0.15 fold
B5: M103205H795-MY534/M103202L889-SK1 (antibody, human IgG1, kappa, name in EU numbering)
heavy: QVTLKESGPVLVKPTETLTLTCTVSGIDLSHDDISWVRQAPGKGLEWVGIISYAGSTYYASWAKGRLTISKDTSKNQVVLTMTNMDPVDTATYYCARGVPAYSHGGDLWGQGTLVTVSSASTKGPSVFPLAPSSKSTSGGTAALGCLVKDYFPEPVTVSWNSGALTSGVHTFPAVLQSSGLYSLSSVVTVPSSSLGTQTYICNVNHKPSNTKVDKKVEPKSCDKTHTCPPCPAPELLTGPVVFLFPPKPKDTLMISRTPEVTCVVVDVSDEDPEVKFNWYVDGVEVHNAKTKPREELYNSTYRVVSVLTVLHQDWLNGKEYKCKVSNKALPKPIEKTISKAKGQPREPQVYTLPPSREEMTKNQVSLTCLVKGFYPSDIAVEWESNGQPENNYKTTPPVLDSDGSFFLYSKLTVDKSRWQQGNVFSCSVMHEALHNHYTQKSLSLSP
light: DIVMTQSPATLSLSPGERATLSCTSSQSVYHANWLSWFQQKPGQPPKLLIYWASTLAYGVPSRFSGSGSGTDFTLTISSLQPEDAATYYCAGGYGGGRYAFGQGTKVEIKRTVAAPSVFIFPPSDEQLKSGTASVVCLLNNFYPREAKVQWKVDNALQSGNSQESVTEQDSKDSTYSLSSTLTLSKADYEKHKVYACEVTHQGLSSPVTKSFNRGEC
notes: copies: 2 + 2
